No end group written: not given here.
Experiments:
[1] = molecular target: T1, N1-CD33-His6 (the ectodomain of human CD33 fused to the N1 domain of the g3p filamentous phage M13) (filamentous phage M13; human, UniProt P20138 18-259); test: QC ELISA on immobilized control protein
T1 construct: extracellular domain; Control protein of the QC ELISA, used for calculation of background; not shown: N1 domain of g3p of filamentous phage M13

[2] = molecular target: T1, N1-CD33-His6 (the ectodomain of human …); test: quality control ELISA on immobilized control protein
[3] = molecular target: T2, human Ambra-1 (human, UniProt Q9C0C7 1-1298); test: automated immunohistochemistry, DAB chromogen
T2 construct: Endogenous protein in formalin fixed paraffin embedded human skin and melanoma sections (immunohistochemistry)
T2 sequence: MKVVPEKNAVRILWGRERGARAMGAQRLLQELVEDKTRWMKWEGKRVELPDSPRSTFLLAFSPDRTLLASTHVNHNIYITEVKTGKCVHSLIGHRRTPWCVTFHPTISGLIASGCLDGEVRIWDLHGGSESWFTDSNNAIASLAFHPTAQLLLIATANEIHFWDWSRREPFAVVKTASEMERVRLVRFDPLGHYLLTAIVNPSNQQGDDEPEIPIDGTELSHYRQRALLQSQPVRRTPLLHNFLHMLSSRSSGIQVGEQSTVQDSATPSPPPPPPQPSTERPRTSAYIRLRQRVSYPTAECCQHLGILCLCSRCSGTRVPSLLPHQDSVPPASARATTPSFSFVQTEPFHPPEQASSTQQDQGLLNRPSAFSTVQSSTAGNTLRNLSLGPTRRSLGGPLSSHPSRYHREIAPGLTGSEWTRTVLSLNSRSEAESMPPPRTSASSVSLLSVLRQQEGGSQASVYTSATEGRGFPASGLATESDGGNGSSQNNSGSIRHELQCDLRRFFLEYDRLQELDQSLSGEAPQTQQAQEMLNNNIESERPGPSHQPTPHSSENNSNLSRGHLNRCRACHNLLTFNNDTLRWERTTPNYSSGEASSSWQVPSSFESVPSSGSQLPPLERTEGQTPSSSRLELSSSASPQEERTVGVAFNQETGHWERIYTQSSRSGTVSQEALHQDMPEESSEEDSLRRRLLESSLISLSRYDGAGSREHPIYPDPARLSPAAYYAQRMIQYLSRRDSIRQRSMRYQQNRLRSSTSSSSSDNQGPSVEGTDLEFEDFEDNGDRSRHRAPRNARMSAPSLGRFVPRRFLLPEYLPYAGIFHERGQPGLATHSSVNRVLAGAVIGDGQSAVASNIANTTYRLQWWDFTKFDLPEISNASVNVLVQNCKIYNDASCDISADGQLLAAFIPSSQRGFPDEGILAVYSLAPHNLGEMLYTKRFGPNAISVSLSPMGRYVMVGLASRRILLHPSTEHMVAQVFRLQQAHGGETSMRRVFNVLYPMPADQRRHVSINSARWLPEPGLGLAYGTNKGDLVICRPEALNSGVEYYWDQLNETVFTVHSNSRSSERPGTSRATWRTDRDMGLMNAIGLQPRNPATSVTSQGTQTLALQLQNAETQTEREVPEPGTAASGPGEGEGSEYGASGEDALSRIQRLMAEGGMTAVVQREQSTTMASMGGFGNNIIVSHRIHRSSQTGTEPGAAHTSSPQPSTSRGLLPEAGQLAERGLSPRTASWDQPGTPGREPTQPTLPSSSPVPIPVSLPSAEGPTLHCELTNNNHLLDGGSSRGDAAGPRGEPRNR

[4] = molecular target: T1, N1-CD33-His6 (the ectodomain of human …); test: quality control ELISA on immobilized control protein; remark: listed apart in the source
[5] = molecular target: T3, Ambra-1 peptide (synthesized peptide to which anti-Ambra-1 antibodies were raised) (human, also: conjugated to carrier protein (BSA), site not given here); test: quality control ELISA, chimeric human/mouse IgG1 on immobilized Amb1-TRF and Amb1-BSA (Ambra-1 peptide conjugates), signal over background
T3 construct: It was tested in native and denatured form; also called Ambra-1 antigen
T3 peptide: CGGSSRGDAAGPRGEPRNR

T1 sequence (P20138 18-259, tags left off): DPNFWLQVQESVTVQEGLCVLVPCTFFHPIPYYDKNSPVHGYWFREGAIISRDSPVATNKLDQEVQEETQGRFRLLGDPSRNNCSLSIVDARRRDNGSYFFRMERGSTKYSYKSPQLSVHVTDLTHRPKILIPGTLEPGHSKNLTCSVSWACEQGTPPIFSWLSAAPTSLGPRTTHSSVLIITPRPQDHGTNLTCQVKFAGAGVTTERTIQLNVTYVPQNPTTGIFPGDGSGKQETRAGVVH

B1: recombinant human HuCAL antibody fragment for Ambra-1 Abd33473.1 (Fab)
heavy: EVQLVQSGAEVKKPGESLKISCKGSGYSFSSYWIHWVRQMPGKGLEWMGTIFPSRSYTTYSPSFQGQVTISADKSISTAYLQWSSLKASDTAMYYCARDTPSTALKSPFDYWGQGTLVTVSSASTKGPSVFPLAPSSKSTSGGTAALGCLVKDYFPEPVTVSWNSGALTSGVHTFPAVLQSSGLYSLSSVVTVPSSSLGTQTYICNVNHKPSNTKVDKKVEPKSRTPEMPVLENRAAQGDITAPGGARRLTGDQTAALRDSLSDKPAKNIILLIGDGMGDSEITAARNYAEGAGGFFKGIDALPLTGQYTHYALNKKTGKPDYVTDSAASATAWSTGVKTYNGALGVDIHEKDHPTILEMAKAAGLATGNVSTAELQDATPAALVAHVTSRKCYGPSATSEKCPGNALEKGGKGSITEQLLNARADVTLGGGAKTFAETATAGEWQGKTLREQAQARGYQLVSDAASLNSVTEANQQKPLLGLFADGNMPVRWLGPKATYHGNIDKPAVTCTPNPQRNDSVPTLAQMTDKAIELLSKNEKGFFLQVEGASIDKQDHAANPCGQIGETVDLDEAVQRALEFAKKEGNTLVIVTADHAHASQIVAPDTKAPGLTQALNTKDGAVMVMSYGNSEEDSQEHTGSQLRIAAYGPHAANVVGLTDQTDLFYTMKAALGLKDYKDDDDKHHHHHH
light: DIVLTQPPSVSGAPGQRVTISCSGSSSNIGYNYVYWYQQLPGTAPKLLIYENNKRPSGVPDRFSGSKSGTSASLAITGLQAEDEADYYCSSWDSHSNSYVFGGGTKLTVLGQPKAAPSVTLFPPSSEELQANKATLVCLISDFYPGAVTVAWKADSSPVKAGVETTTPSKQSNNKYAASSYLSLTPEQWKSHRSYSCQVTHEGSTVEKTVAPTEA
notes: also called HuCAL antibody 33473
binding result [1]: no binding

B2: full length chimeric antibody AbD33047 with an IgG1 mouse Fc region (antibody, V domains shown)
VH: QVQLVQSGAEVKKPGASVKVSCKASGYTFNDYYIHWVRQAPGQGLEWMGVISPNSGKTNYAQKFQGRVTMTRDTSISTAYMELSRLRSEDTAVYYCARDLYPDSSAFDIWGQGTLVTVSS
VL: DIELTQPPSVSVSPGQTASITCSGDNLGDKYAHWYQQKPGQAPVLVIYDDNERPSGIPERFSGSNSGNTATLTISGTQAEDEADYYCQSYDSGNRVFGGGTKLTVLG
notes: also called recombinant monoclonal antibody AbD33047; HuCAL antibody AbD33047
binding result [2]: no binding

B3: full length chimeric antibody AbD33473 with an IgG1 mouse Fc region (antibody, V domains shown)
VH: EVQLVQSGAEVKKPGESLKISCKGSGYSFSSYWIHWVRQMPGKGLEWMGTIFPSRSYTTYSPSFQGQVTISADKSISTAYLQWSSLKASDTAMYYCARDTPSTALKSPFDYWGQGTLVTVSS
VL: DIVLTQPPSVSGAPGQRVTISCSGSSSNIGYNYVYWYQQLPGTAPKLLIYENNKRPSGVPDRFSGSKSGTSASLAITGLQAEDEADYYCSSWDSHSNSYVFGGGTKLTVLG
notes: also called recombinant monoclonal antibody AbD33473; HuCAL antibody AbD33473
binding result [3]: binds | binding result [4]: no binding | binding result [5]: binds
